Each substance was assayed on T1, CCCCCCCCCCCCCCCC(=O)Oc1ccc([N+](=O)[O-])cc1 (assay: p-nitrophenol release, Michaelis-Menten fit). Settings: 37 °C, pH 9.0, 100 mM Tris-HCl, pNPP 0.08-10.00 mM, apparent Km.
T1 construct: N-terminal His-tag, secreted from Pichia pastoris GS115 (pPIC9K), Ni-NTA purified
Assay type: biochemical, Thermomyces lanuginosus
Text: p-nitrophenol release, Michaelis-Menten fit on TLL (Thermomyces lanuginosus lipase)

Substance	Km [µM]	Vmax [µmol/min/mg]	kcat [s⁻¹]	kcat/Km [M⁻¹ s⁻¹]
TLL (Thermomyces lanuginosus lipase) (Thermomyces lanuginosus; R231P)	160 ± 20	339	1387 ± 12.8	8.669e+06 ± 80300
TLL (Thermomyces lanuginosus lipase) (Thermomyces lanuginosus; R231M)	190 ± 30	319	765 ± 17.6	4.02e+06 ± 92400
TLL (Thermomyces lanuginosus lipase) (Thermomyces lanuginosus; R231Q)	230 ± 30	354	788 ± 7.98	3.42e+06 ± 34700
TLL (Thermomyces lanuginosus lipase) (Thermomyces lanuginosus; R231K)	170 ± 20	345	1100 ± 14	6.5e+06 ± 82500
TLL (Thermomyces lanuginosus lipase) (Thermomyces lanuginosus; R231V)	140 ± 20	260	713 ± 8.11	5.09e+06 ± 57900
TLL (Thermomyces lanuginosus lipase) (Thermomyces lanuginosus; R231I)	180 ± 20	303	767 ± 22.8	4.26e+06 ± 127000
TLL (Thermomyces lanuginosus lipase) (Thermomyces lanuginosus; R231T)	190 ± 30	344	1090 ± 27.6	5.75e+06 ± 146000
TLL (Thermomyces lanuginosus lipase) (Thermomyces lanuginosus; R231A)	230 ± 30	384	1220 ± 43	5.31e+06 ± 187000
TLL (Thermomyces lanuginosus lipase) (Thermomyces lanuginosus; R231E)	140 ± 20	301	1230 ± 27.6	8.79e+06 ± 197000
TLL (Thermomyces lanuginosus lipase) (Thermomyces lanuginosus; R231H)	180 ± 20	330	790 ± 22.7	4.39e+06 ± 126000
